Assay results reported in patent publication US20230235004A1 (published 2023).

T1: human MAdCAM expressed on cells (human, UniProt Q13477 19-382)
T1 construct: whole, on cells
T1 sequence (looked up): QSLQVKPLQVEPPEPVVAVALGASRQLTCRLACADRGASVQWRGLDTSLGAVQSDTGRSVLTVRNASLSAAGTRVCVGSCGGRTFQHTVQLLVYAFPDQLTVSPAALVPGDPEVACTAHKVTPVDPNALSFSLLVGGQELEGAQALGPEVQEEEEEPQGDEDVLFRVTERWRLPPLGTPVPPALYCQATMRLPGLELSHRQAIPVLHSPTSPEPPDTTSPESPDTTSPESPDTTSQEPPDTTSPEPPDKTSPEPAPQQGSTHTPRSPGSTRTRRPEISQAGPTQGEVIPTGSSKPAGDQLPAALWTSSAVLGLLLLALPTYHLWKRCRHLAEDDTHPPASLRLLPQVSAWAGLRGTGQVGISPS

T2: mouse MAdCAM expressed on cells (mouse, UniProt Q61826 22-405)
T2 construct: whole, on cells
T2 sequence (looked up): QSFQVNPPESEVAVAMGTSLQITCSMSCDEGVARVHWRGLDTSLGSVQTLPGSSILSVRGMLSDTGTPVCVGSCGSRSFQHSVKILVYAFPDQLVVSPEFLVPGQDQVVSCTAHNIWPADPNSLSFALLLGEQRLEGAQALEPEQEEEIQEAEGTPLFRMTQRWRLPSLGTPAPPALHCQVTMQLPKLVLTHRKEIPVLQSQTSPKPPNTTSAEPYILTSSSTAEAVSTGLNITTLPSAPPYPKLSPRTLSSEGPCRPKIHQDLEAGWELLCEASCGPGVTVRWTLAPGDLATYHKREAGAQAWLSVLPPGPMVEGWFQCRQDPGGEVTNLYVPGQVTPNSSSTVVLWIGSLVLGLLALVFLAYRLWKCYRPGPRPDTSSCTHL


Tests used:
[1] = biological target: T1, human MAdCAM expressed on cells; test: cell binding
[2] = biological target: T2, mouse MAdCAM expressed on cells; test: cell binding

Binder	binding result [1]	binding result [2]
MAdCAM antibody Table 1 clone 38 (scFv) scFv: EVQLLESGGGLVQPGGSLRLSCAASGFTFGSYSMSWVRQAPGKGLEWVSAIGTGGGTYYADSVKGRFTISRDNSKNTLYLQMNSLRAEDTAVYYCAKGTPYYYYYGMDVWGQGTMVTVSSGGGGSGGGGSGGGGSGGGGSDIQMTQSPSSLSASVGDRVTITCRASQPLSNWLAWYQQKPGKAPKLLIYAASSLQSGVPSRFSGSGSGTDFTLTISSLQPEDFATYYCQQAISFPLTFGGGTKVEIK	binds	no binding
MAdCAM antibody Table 1 clone 37 (scFv) scFv: QVQLVQSGAEVKKPGASVKVSCKASGYTFSKHFVHWVRQAPGQGLEWMGWMNPNSGNSGYAQKFQGRVTMTRDTSTSTVYMELSSLRSEDTAVYYCARGEGGYYYYGMDVWGQGTLVTVSSGGGGSGGGGSGGGGSGGGGSDIQMTQSPSSLSASVGDRVTITCRASQSISSWLAWYQQKPGKAPKLLIYAASTLQSGVPSRFSGSGSGTDFTLTISSLQPEDFATYYCQQSYSTPWTFGQGTKVEIK	binds	no binding
MAdCAM antibody Table 1 clone 44 (scFv) scFv: EVQLVESGGGLVKPGGSLRLSCAASGFTFSSYWMSWVRQAPGKGLEWVSAIGTGGGTYYAAPVKGRFTISRDDSKNTLYLQMNSLKTEDTAVYYCAREWLVPYYGMDVWGQGTTVTVSSGGGGSGGGGSGGGGSGGGGSDIQMTQSPSSLSASVGDRVTITCRASQSISRWLAWYQQKPGKAPKLLIYGASNLQSGVPSRFSGSGSGTDFTLTISSLQPEDFATYYCQQSYSTPWTFGQGTKVEIK	binds	no binding
MAdCAM antibody Table 1 clone 29 (scFv) scFv: QVQLVQSGAEVKKPGASVKVSCKASGYTFTSYYMHWVRQAPGQGLEWMAWMNPNSGNTGYAQKFQGRVTMTRDTSTSTVYMELSSLRSEDTAVYYCARDYDFWSGSLGYWGQGTLVTVSSGGGGSGGGGSGGGGSGGGGSDIQMTQSPSSLSASVGDRVTITCRASQGISNYLAWYQQKPGKAPKLLIYAASSLQSGVPSRFSGSGSGTDFTLTISSLQPEDFATYYCQQSYSTPWTFGQGTKVEIK	binds	no binding
MAdCAM antibody Table 1 clone 33 (scFv) scFv: QVQLVQSGAEVKKPGASVKVSCKASGYTFTSYGISWVRQAPGQGLEWMGWMHPKSGDTGLTQKFQGRVTMTRDTSTSTVYMELSSLRSEDTAVYYCARDTPYYYYGMDVWGQGTTVTVSSGGGGSGGGGSGGGGSGGGGSDIQMTQSPSSLSASVGDRVTITCRASQSISSWLAWYQQKPGKAPKLLIYAASSLQSGVPSRFSGSGSGTDFTLTISSLQPEDFATYYCQQSYSVPITFGQGTKVEIK	binds	no binding
MAdCAM antibody Table 1 clone 43 (scFv) scFv: EVQLLESGGGLVQPGGSLRLSCAASGFTFDDFAMHWVRQAPGKGLEWVSGISGNGDSRYYADSVKGRFTISRDNSKNTLYLQMNSLRAEDTAVYYCARDASYGGNYGMDVWGQGTTVTVSSGGGGSGGGGSGGGGSGGGGSDIQMTQSPSSLSASVGDRVTITCQASQDIRNYLNWYQQKPGKAPKLLIYKASTLESGVPSRFSGSGSGTDFTLTISSLQPEDFATYYCQQANSFPLTFGPGTKVDIK	binds	no binding
MAdCAM antibody Table 1 clone 31 (scFv) scFv: QVQLVQSGAEVKKPGASVKVSCKASGYTFTSYYMHWVRQAPGQGLEWMGIINPSGGSTSYAQKFQGRVTMTRDTSTSTVYMELSSLRSEDTAVYYCARDTGYSYGRYYYYGMDVWGQGTLVTVSSGGGGSGGGGSGGGGSGGGGSDIQMTQSPSSLSASVGDRVTITCRASQSIGRWLAWYQQKPGKAPKLLIYDASNLQSGVPSRFSGSGSGTDFTLTISSLQPEDFATYYCQQSYSIPITFGQGTKVEIK	binds	no binding
MAdCAM antibody Table 1 clone 45 (scFv) scFv: EVQLLESGGGLVQPGGSLRLSCAASGFSVSSNYMSWVRQAPGKGLEWVAGISYDGSSKPYADSVKGRFTISRDNSKNTLYLQMNSLRAEDTAVYYCARSRGIAARPLQHWGQGTLVTVSSGGGGSGGGGSGGGGSGGGGSDIVMTQSPDSLAVSLGERATINCKSSQSVLYSSNNKNYLAWYQQKPGQPPKLLIYWASTRQSGVPDRFSGSGSGTDFTLTISSLQAEDVAVYYCHQYYGHPPTFGGGTKVEIK	binds	no binding

The next lines start with the values.

binding result [1]	binding result [2]	Binder
binds	no binding	MAdCAM antibody Table 1 clone 56 (scFv) scFv: EVQLLESGGGLVQPGGSLRLSCAASGFTFDDYAMHWVRQAPGKGLEWVSAISGGGEDTYYADSVKGRFTISRDNSKNTLYLQMNSLRAEDTAVYYCARDASYGGNYGMDVWGQGTTVTVSSGGGGSGGGGSGGGGSGGGGSDIQMTQSPSSLSASVGDRVTITCQASQDIRNYLNWYQQKPGKAPKLLIYKASSLESGVPSRFSGSGSGTDFTLTISSLQPEDFATYYCQQANSYPVTFGGGTKVEIK
binds	no binding	MAdCAM antibody Table 1 clone 32 (scFv) scFv: QVQLVQSGAEVKKPGASVKVSCKASGYTLTDYYMHWVRQAPGQGLEWMGIINPSGGSTSYAQKFQGRVTMTRDTSTSTVYMELSSLRSEDTAVYYCAREEYSSSSGYFDYWGQGTLVTVSSGGGGSGGGGSGGGGSGGGGSDIQMTQSPSSLSASVGDRVTITCRASQGISSWLAWYQQKPGKAPKLLIYAASSLQSGVPSRFSGSGSGTDFTLTISSLQPEDFATYYCQQSYSTPLTFGQGTKVEIK
binds	no binding	MAdCAM antibody Table 1 clone 39 (scFv) scFv: QVQLVQSGAEVKKPGASVKVSCKASGYTFTSYYMHWVRQAPGQGLEWMGWMNPNSGNTGYAQKFQGRVTMTRDTSTSTVYMELSSLRSEDTAVYYCARDLGYYDSSGYFGAFDIWGQGTTVTVSSGGGGSGGGGSGGGGSGGGGSDIQMTQSPSSLSASVGDRVTITCQSSEDISSSLNWYQQKPGKAPKLLIYAASSLQIGVPSRFSGSGSGTDFTLTISSLQPEDFATYYCQQTYSTPYTFGQGTKVEIK
binds	no binding	MAdCAM antibody Table 1 clone 36 (scFv) scFv: QVQLVQSGAEVKKPGASVKVSCKASGYTFTGHYMHWVRQAPGQGLEWMGIINPSGGSTSYAQKFQGRVTMTRDTSTSTVYMELSSLRSEDTAVYYCARDTGYSYGRYYYYGMDVWGQGTTVTVSSGGGGSGGGGSGGGGSGGGGSDIQMTQSPSSLSASVGDRVTITCRASQSIGRWLAWYQQKPGKAPKLLIYDASNLQSGVPSRFSGSGSGTDFTLTISSLQPEDFATYYCQQSYSIPITFGGGTKVEIK
binds	no binding	MAdCAM antibody Table 1 clone 35 (scFv) scFv: EVQLLESGGGLVQPGGSLRLSCAASGFSFSSYTMNWVRQAPGKGLEWVSFITSSSRTIYYADSVKGRFTISRDNSKNTLYLQMNSLRAEDTAVYYCARDRRGDYGDSWYFDLWGRGTLVTVSSGGGGSGGGGSGGGGSGGGGSEIVMTQSPATLSVSPGERATLSCRASQSVRNYLAWYQQKPGQAPRLLIYGASTRATGIPARFSGSGSGTEFTLTISSLQSEDFAVYYCQQYGSSPLTFGGGTKVEIK
binds	no binding	MAdCAM antibody Table 1 clone 46 (scFv) scFv: EVQLLESGGGLVQPGGSLRLSCAASGFSVSSNYMSWVRQAPGKGLEWVAGISYDGSSKPYADSVKGRFTISRDNSKNTLYLQMNSLRAEDTAVYYCARSRGIAARPLQHWGQGTLVTVSSGGGGSGGGGSGGGGSGGGGSDIVMTQSPDSLAVSLGERATINCKSSQSVLYSSNNKNYLAWYQQKPGQPPKLLIYQASTRQSGVPDRFSGSGSGTDFTLTISSLQAEDVAVYYCHQYYGHPPTFGGGTKVEIK
binds	no binding	MAdCAM antibody Table 1 clone 40 (scFv) scFv: QVQLVQSGAEVKKPGASVKVSCKASGYTFTSYGISWVRQAPGQGLEWMGIINPRGGSTIFAQKFQGRVTMTRDTSTSTVYMELSSLRSEDTAVYYCARGTRSSGWYGWFDPWGQGTLVTVSSGGGGSGGGGSGGGGSGGGGSDIQMTQSPSSLSASVGDRVTITCRASQGIGNWLAWYQQKPGKAPKLLIYAASNLETGVPSRFSGSGSGTDFTLTISSLQPEDFATYYCQQIHSYPLTFGGGTKVEIK
binds	no binding	MAdCAM antibody Table 1 clone 42 (scFv) scFv: QVQLVQSGAEVKKPGSSVKVSCKASGGTLSRYGVSWVRQAPGQGLEWMGGIIPIFGTTNYAQKFQGRVTITADESTSTAYMELSSLRSEDTAVYYCARDRVYYDSSGYPTWYFDLWGRGTLVTVSSGGGGSGGGGSGGGGSGGGGSEIVMTQSPATLSVSPGERATLSCRASQSVSSSYLAWYQQKPGQAPRLLIYGASTRATGIPARFSGSGSGTEFTLTISSLQSEDFAVYYCQQYGSSPITFGQGTKVEIK
